B1: PN45418 (TCR, V domains shown)
V domain 1: EDQVTQSPEALRLQEGESSSLNCSYTVSGLRGLFWYRQDPGKGPEFLFTLYSAGEEKEKERLKATLTKKESFLHITAPKPEDSATYLCAVQPSYSGAGSYQLTFGKGTKLSVIP
V domain 2: EAQVTQNPRYLITVTGKKLTVTCSQNMNHEYMSWYRQDPGLGLRQIYYSMNVEVTDKGDVPEGYKVSRKEKRNFPLILESPSPNQTSLYFCASSPGTGGFSPLHFGNGTRLTVT
notes: stained with anti-mouse TCR constant region H57-597; full-length chains on transfected CHO cells; also called TCR No. 46
B2: PN45584 (TCR, V domains shown)
V domain 1: AQKITQTQPGMFVQEKEAVTLDCTYDTSDPSYGLFWYKQPSSGEMIFLIYQGSYDEQNATEGRYSLNFQKARKSANLVISASQLGDSAMYFCAMREGPGSGNTGKLIFGQGTTLQVKP
V domain 2: NAGVTQTPKFRILKIGQSMTLQCAQDMNHNYMYWYRQDPGMGLKLIYYSVGAGITDKGEVPNGYNVSRSTTEYFPLRLELAAPSQTSVYFCASSYSEWQNYGYTFGSGTRLTVV
notes: stained with anti-mouse TCR constant region H57-597; full-length chains on transfected CHO cells; also called TCR No. 43
B3: PN41550 (TCR, V domains shown)
V domain 1: QKEVEQNSGPLSVPEGAIASLNCTYSDRGSQSFFWYRQYSGKSPELIMSIYSNGDKEDGRFTAQLNKASQYVSLLIRDSQPSDSATYLCAVNLSWGKFQFGAGTQVVVTP
V domain 2: DAGVTQSPTHLIKTRGQQVTLRCSPKSGHDTVSWYQQALGQGPQFIFQYYEEEERQRGNFPDRFSGHQFPNYSSELNVNALLLGDSALYLCASSLDRSTEAFFGQGTRLTVV
notes: stained with anti-mouse TCR constant region H57-597; full-length chains on transfected CHO cells; also called TCR No. 10
B4: PN41539 (TCR, V domains shown)
V domain 1: AQKVTQAQTEISVVEKEDVTLDCVYETRDTTYYLFWYKQPPSGELVFLIRRNSFDEQNEISGRYSWNFQKSTSSFNFTITASQVVDSAVYFCALSEGDTGGFKTIFGAGTRLFVKA
V domain 2: NAGVTQTPKFRILKIGQSMTLQCAQDMNHNYMYWYRQDPGMGLKLIYYSVGAGITDKGEVPNGYNVSRSTTEYFPLRLELAAPSQTSVYFCASSYFPDRGLGNTIYFGEGSWLTVV
notes: stained with anti-mouse TCR constant region H57-597; full-length chains on transfected CHO cells; also called TCR No. 9
B5: PN41516 (TCR, V domains shown)
V domain 1: TQLLEQSPQFLSIQEGENLTVYCNSSSVFSSLQWYRQEPGEGPVLLVTVVTGGEVKKLKRLTFQFGDARKDSSLHITAAQPGDTGLYLCAGERDSWGKFQFGAGTQVVVTP
V domain 2: NAGVTQTPKFRILKIGQSMTLQCAQDMNHNYMYWYRQDPGMGLKLIYYSVGAGITDKGEVPNGYNVSRSTTEYFPLRLELAAPSQTSVYFCASSFWTGGDEKLFFGSGTQLSVL
notes: stained with anti-mouse TCR constant region H57-597; full-length chains on transfected CHO cells; also called TCR No. 4
B6: PN45593 (TCR, V domains shown)
V domain 1: AQKITQTQPGMFVQEKEAVTLDCTYDTSDPSYGLFWYKQPSSGEMIFLIYQGSYDQQNATEGRYSLNFQKARKSANLVISASQLGDSAMYFCAMREGPGNNARLMFGDGTQLVVKP
V domain 2: NAGVTQTPKFRVLKTGQSMTLLCAQDMNHEYMYWYRQDPGMGLRLIHYSVGEGTTAKGEVPDGYNVSRLKKQNFLLGLESAAPSQTSVYFCASSYWDRGSPLHFGNGTRLTVT
notes: stained with anti-mouse TCR constant region H57-597; full-length chains on transfected CHO cells; also called TCR No. 40
B7: PN45581 (TCR, V domains shown)
V domain 1: B6 V domain 1
V domain 2: EAQVTQTPRYLITVTGKKLTVTCSQNMNHEYMSWYRQDPGLGLRQIYYSMNVEVTDKGDVPEGYKVSRKEKRNFPLILESPSPNQTSLYFCASSLWTGGGYTFGSGTRLTVV
notes: stained with anti-mouse TCR constant region H57-597; full-length chains on transfected CHO cells; also called TCR No. 44
B8: PN45539 (TCR, V domains shown)
V domain 1: DAKTTQPPSMDCAEGRAANLPCNHSTISGNEYVYWYRQIHSQGPQYIIHGLKNNETNEMASLIITEDRKSSTLILPHATLRDTAVYYCIVRPYNAGNNRKLIWGLGTSLAVNP
V domain 2: DVKVTQSSRYLVKRTGEKVFLECVQDMDHENMFWYRQDPGLGLRLIYFSYDVKMKEKGDIPEGYSVSREKKERFSLILESASTNQTSMYLCASSFEGGYYGYTFGSGTRLTVV
notes: stained with anti-mouse TCR constant region H57-597; full-length chains on transfected CHO cells; also called TCR No. 41
B9: PN41557 (TCR, V domains shown)
V domain 1: EDQVTQSPEALRLQEGESSSLNCSYTVSGLRGLFWYRQDPGKGPEFLFTLYSAGEEKEKERLKATLTKKESFLHITAPKPEDSATYLCAVQAVTGGGNKLTFGTGTQLKVEL
V domain 2: GAVVSQHPSWVICKSGTSVKIECRSLDFQATTMFWYRQFPKQSLMLMATSNEGSKATYEQGVEKDKFLINHASLTLSTLTVTSAHPEDSSFYICSASWDRDYGYTFGSGTRLTVV
notes: stained with anti-mouse TCR constant region H57-597; full-length chains on transfected CHO cells; also called TCR No. 11
B10: PN41613 (TCR, V domains shown)
V domain 1: AQTVTQSQPEMSVQEAETVTLSCTYDTSESDYYLFWYKQPPSRQMILVIRQEAYKQQNATENRFSVNFQKAAKSFSLKISDSQLGDAAMYFCAYRSATGNQFYFGTGTSLTVIP
V domain 2: EAQVTQNPRYLITVTGKKLTVTCSQNMNHEYMSWYRQDPGLGLRQIYYSMNVEVTDKGDVPEGYKVSRKEKRNFPLILESPSPNQTSLYFCASSLLYSNQPQHFGDGTRLSIL
notes: stained with anti-mouse TCR constant region H57-597; full-length chains on transfected CHO cells; also called TCR No. 19
B11: PN41839 (TCR, V domains shown)
V domain 1: DAKTTQPPSMDCAEGRAANLPCNHSTISGNEYVYWYRQIHSQGPQYIIHGLKNNETNEMASLIITEDRKSSTLILPHATLRDTAVYYCIVYGGSQGNLIFGKGTKLSVKP
V domain 2: DAGVTQSPTHLIKTRGQQVTLRCSPKSGHDTVSWYQQALGQGPQFIFQYYEEEERQRGNFPDRFSGHQFPNYSSELNVNALLLGDSALYLCASSFSRVQPQHFGDGTRLSIL
notes: stained with anti-mouse TCR constant region H57-597; full-length chains on transfected CHO cells; also called TCR No. 34
B12: PN41712 (TCR, V domains shown)
V domain 1: AQTVTQSQPEMSVQEAETVTLSCTYDTSENNYYLFWYKQPPSRQMILVIRQEAYKQQNATENRFSVNFQKAAKSFSLKISDSQLGDTAMYFCALNTGNQFYFGTGTSLTVIP
V domain 2: GAVVSQHPSWVICKSGTSVKIECRSLDFQATTMFWYRQFPKQSLMLMATSNEGSKATYEQGVEKDKFLINHASLTLSTLTVTSAHPEDSSFYICSAWDGFYGYTFGSGTRLTVV
notes: stained with anti-mouse TCR constant region H57-597; full-length chains on transfected CHO cells; also called TCR No. 27
B13: PN41748 (TCR, V domains shown)
V domain 1: SQELEQSQQSLIVQEGKNLTINCTSSKTLYGLYWYKQKYGEGLIFLMMLQKGGEEKSHEKITAKLDEKKQQSSLHITASQPSHAGIYLCGADMYSGGGADGLTFGKGTHLIIQP
V domain 2: B12 V domain 2
notes: stained with anti-mouse TCR constant region H57-597; full-length chains on transfected CHO cells; also called TCR No. 29

Columns and labels:
[1] = target: T1, soluble HLA-A2 MAGE-A4 (…) tetramer (human); assay: flow cytometry, HLA-A2 MAGE-A4 (…) tetramer staining of CHO cells transfected with the TCR
T1 construct: Bought tetramer reagent; also called MAGE-A4/HLA tetramer reagent; HLA-A02:01 MAGE-A4 tetramer
Procedure: (§1) Samples were then analyzed on an LSRFortessa X-20 (BD Biosciences, San Jose, Calif.). […] However, a more stringent cutoff, such as 3%, could be used to separate out Ag+ TCRs that behave better in the binding assay. Ag+ TCRs were determined by Next Generation Sequencing.

[2] = target: T1, soluble HLA-A2 MAGE-A4 (…) tetramer; assay: flow cytometry tetramer staining; % with MAGE-A4 tetramer divided by % with MAGE-A8 tetramer (reference)
Procedure: as §1

[3] = target: T2, soluble HLA-A2 MAGE-A8 (…) tetramer (human); assay: flow cytometry, HLA-A2 MAGE-A8 (…) tetramer staining of CHO cells transfected with the TCR
T2 construct: Bought tetramer reagent; also called MAGE-A8/HLA tetramer reagent; HLA-A02:01 MAGE-A8 tetramer
Procedure: as §1

[4] = target: T3, MAGE-A4 peptide on HLA-A*02:01 (human); assay: multimer staining
T3 peptide: GVYDGREHTV

[5] = target: T4, soluble HLA-A2 (…) tetramer (human); assay: flow cytometry, HLA-A2 (…) tetramer staining of CHO cells transfected with the TCR
T4 construct: Bought tetramer reagent; also called MAGE-A4/HLA tetramer reagent; HLA-A02:01 MAGE-A4 tetramer
Procedure: Samples were then analyzed on an LSRFortessa X-20 (BD Biosciences, San Jose, Calif.).

[6] = target: T5, MAGE-A4 peptide on HLA-A*02:01 (human); assay: multimer staining
T5 peptide: KVLEHVVRV

Row | Binder | % tetramer in Ag+ gate (MAGE-A4) [1] | MAGE-A4/MAGE-A8 (ratio of % tetramer in Ag+ gate) [2] | % tetramer in Ag+ gate (MAGE-A8) [3] | binding result [4] | % in Ag+ gate >250 MFI, >1% [5] | binding result [6]
1 | B1 | 12.3% | 9.92 | 1.24% | recognises |  | 
2 | B2 | 69.1% |  |  | recognises |  | 
3 | B3 |  |  |  |  | 92.2% | recognises
4 | B4 |  |  |  |  | 10.9% | recognises
5 | B5 |  |  |  |  | 7.83% | recognises
6 | B6 | 56.5% | 991 |  | recognises |  | 
7 | B7 | 3.18% | 18.7 |  | recognises |  | 
8 | B8 | 59.8% | 498 |  | recognises |  | 
9 | B9 |  |  |  |  | 8.76% | recognises
10 | B10 |  |  |  |  | 58.7% | recognises
11 | B11 |  |  |  |  | 85.4% | recognises
12 | B12 |  |  |  |  | 20.7% | recognises
13 | B13 |  |  |  |  | 9.56% | recognises

Source: US20220324939A1 (Regeneron, published 2022)
